This test deals with Recombinant human latent TGF-β1 (small latent complex, SLC: LAP with mature TGF-β1) (human) (UniProt P01137). The test can be described thus: SPR; Biacore 3000; LAP or latent TGF-β1 amine-coupled to a CM5 chip (1000 RU); PSG9-Fc injected at 6, 4, 2, 1, 0.5 and 0.25 μM, 10 μl/min, 25°C, HBS-EP (0.01 M HEPES pH 7.4, 0.15 M NaCl, 3 mM EDTA, 0.005% P20); 1:1 Langmuir model.

Consider one substance from paper PMC4936685.

Chain of UniProt P01137 (P01137 whole entry, one chain of several): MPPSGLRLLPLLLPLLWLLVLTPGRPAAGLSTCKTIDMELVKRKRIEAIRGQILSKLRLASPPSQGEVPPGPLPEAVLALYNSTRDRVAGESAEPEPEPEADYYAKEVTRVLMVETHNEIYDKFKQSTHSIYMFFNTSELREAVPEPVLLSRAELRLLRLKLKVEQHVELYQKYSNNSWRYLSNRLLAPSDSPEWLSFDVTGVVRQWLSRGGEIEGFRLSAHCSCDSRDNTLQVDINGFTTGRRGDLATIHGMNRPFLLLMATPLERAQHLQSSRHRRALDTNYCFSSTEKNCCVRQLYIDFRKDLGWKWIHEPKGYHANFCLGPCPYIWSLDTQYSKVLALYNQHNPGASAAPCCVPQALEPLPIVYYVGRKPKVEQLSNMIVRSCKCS

For “PSG9-Fc (recombinant human pregnancy-specific glycoprotein 9 with the N, A1, A2 and B2 domains, fused to the Fc of human IgG1) (from UniProt Q00887-1 35-426) (Fc fusion)”, the Kd was determined as 560 nM, the koff turned out to be 0.00065 s⁻¹ and the kon worked out at 1150 M⁻¹ s⁻¹.

What is called Kd is the concentration at which binding is half-saturated. One may read the koff as the rate constant with which the complex falls apart. As a reminder, the kon is the second-order rate constant of association.
